Measured values published in paper PMC4971840.

Target: GST-CypA (human cyclophilin A fused to GST), P62937-1
Assay: His6-HIVCA pull-down assay, SDS/PAGE band densitometry
Details: n = 3, parent: est. 0.45, read off a plot

| Substance | other: CypA/CA ratio (*P < 0.05) | other: CypA/CA ratio |
| --- | --- | --- |
| wild-type HIV-1 capsid protein with an N-terminal 6-his tag (His6-HIVCA) (from UniProt P04591) A77P | 0.063 |  |
| wild-type HIV-1 capsid protein with an N-terminal 6-his tag (His6-HIVCA) (from UniProt P04591) A78V |  | 0.43 |
| wild-type HIV-1 capsid protein with an N-terminal 6-his tag (His6-HIVCA) (from UniProt P04591) L189I |  | 0.36 |
| wild-type HIV-1 capsid protein with an N-terminal 6-his tag (His6-HIVCA) (from UniProt P04591) L189F |  | 0.53 |
| wild-type HIV-1 capsid protein with an N-terminal 6-his tag (His6-HIVCA) (from UniProt P04591) W23A |  | 0.26 |
| wild-type HIV-1 capsid protein with an N-terminal 6-his tag (His6-HIVCA) (from UniProt P04591) L189P |  | 0.43 |
